From patent US20210162028A1, “Methods for Inducing Intermittent Fasting and Modulating Autophagy” (The Hong Kong Polytechnic University, priority 2019, published 2021)
“Also recorded” adds a separate entry of the source.

Key:
Format in all cases: in vivo, mouse
[1] = system: brown adipocyte; assay: Transmission electron microscopy of interscapular brown adipose tissue; conditions: HFD-fed male mice, 600 U once a week, 4 weeks
Source text: FIG. 52 illustrates the interscapular brown adipose tissue (iBAT) examined by transmission electron microscopy at Day 3 and Day 7 of a 7-day intermittent fasting cycle after N-ABD094-rhArg injection. (A) The BAT of HFD-fed male mice administered with 600 U N-ABD094-rhArg (SEQ ID NO: 50) [HFD (rhArg) group] once a week for 4 weeks, in comparison to that of HFD-fed mice treated with vehicle [HFD (vehicle) group] […] (C) As examined under 5000× magnification, autophagosome engulfed the lipid droplet and breaking into tiny particles.
After prolonged feeding on a HFD, there was a further increase in the size (FIG. 53A) and weight of the interscapular BAT (FIG. 53B) in vehicle-treated DIO mice [HFD (vehicle) group] in comparison to the lean control mice [CD (vehicle) group], which was correlated with the presence of massive amount of enlarged white-like unilobular cells (FIG. 53A). As observed under transmission electron microscopy, brown adipocyte in mice fed with HFD [HFD (vehicle) group] had massive enlarged lipid droplets (FIG. 52A). […] Many autophagosomes were actively forming and engulfing the lipid droplets (FIG. 52B). The autolysosome was also found to be breaking down small lipid droplets, mixing with plenty of lysosomes in the structure (FIG. 52C).

[2] = Rotarod test
[3] = Survival of very old mice; conditions: 25-month old C57BL/6J male mice on chow diet; weekly for 30 weeks; vehicle 20%
Source text: Specific autophagy upregulation in Caenorhabditis elegans and Drosophila extends lifespan, and drugs that induce autophagy, such as rapamycin, promote longevity in rodents (Hansen et al., Nature Reviews Molecular Cell Biology. 2018; 19:579-593). For C57BL/6J mice, over 24 months of age can be considered “very old” and survivorship drops off markedly (https://www.jax.org/news-and-insights/jax-blog/2017/november/when-are-mice-considered-old). To determine whether N-ABD094-rhArg (SEQ ID NO: 50), which induces systemic upregulation of autophagy, can increase longevity, very old C57BL/6J male mice at 25 months of age (equivalent to seventy in humans) fed an ordinary chow diet were separated into 2 groups. One group was treated once weekly with 600 U N-ABD094-rhArg (SEQ ID NO: 50) [CD Very Old (rhArg) group] for 30 weeks while another group was treated with vehicle [CD Very Old (vehicle) group]. A group of C57BL/6J male mice at 7 months of age (equivalent to early thirties in humans) treated with vehicle [CD Young (vehicle) group] served as the reference of progressive changes from mature adult to late middle age over the 30-week period.

[4] = Insulin tolerance test (ITT)
Source text: In terms of reversing insulin resistance on pre-existing obese mice, insulin tolerance test (ITT) was employed (FIG. 59).
In terms of reversing insulin resistance on pre-existing obese mice, insulin tolerance test (ITT) was employed (FIG. 68A).

[5] = Insulin tolerance test (ITT); conditions: 17-month old C57BL/6J male mice on chow diet; once a week; at 13 weeks
[6] = Bodyweight of treated mice

B1: N-ABD094-rhArg: recombinant human arginase fused to albumin binding domain ABD094 (SEQ ID NO: 50); engineered long-acting arginine-depleting enzyme (protein)
chain: MHHHHHHDEAVDANSLAEAKEAANAELDSYGVSDFYKRLIDKAKTVEGVEALKDAILAALPSGSNNNNNNGSGGMSAKSRTIGIIGAPFSKGQPRGGVEEGPTVLRKAGLLEKLKEQECDVKDYGDLPFADIPNDSPFQIVKNPRSVGKASEQLAGKVAEVKKNGRISLVLGGDHSLAIGSISGHARVHPDLGVIWVDAHTDINTPLTTTSGNLHGQPVSFLLKELKGKIPDVPGFSWVTPCISAKDIVYIGLRDVDPGEHYILKTLGIKYFSMTEVDRLGIGKVMEETLSYLLGRKKRPIHLSFDVDGLDPSFTPATGTPVVGGLTYREGLYITEEIYKTGLLSGLDIMEVNPSLGKTPEEVTRTVNTAVAITLACFGLAREGNHKPIDYLNPPK
modifications: N-ABD094-rhArg, Synthesized in the Lab
notes: engineered long-acting arginine-depleting enzyme
TEM of BAT, Day 3: autophagy/lipophagy [1]: active lipophagy at Day 3 | TEM of BAT, Day 7: autophagosomes and autolysosomes [1]: continuous active autophagy (lipophagy) was taking place; also recorded: autophagosome and autolysosome numbers had prominently reduced by Day 7 | TEM of BAT, Day 7: mitochondria ([1]; compared with Day 3): relatively large amount of mitochondria; also recorded: an increase in mitochondria number was observed | Rotarod test: latency to fall ([2]; DIO C57BL/6J male mice on HFD, weekly for 30 weeks): latency similar to mice in CD (vehicle) group | Rotarod test: performance ([2]; DIO ICR female mice on HFD, weekly, at 55 weeks): significantly better than mice in HFD (vehicle) group | Survival rate [3]: 80% | Insulin sensitivity in ITT ([4]; 16-month old DIO C57BL/6J male mice on HFD, once a week, at 9 weeks): markedly reverse pre-existing insulin resistance; also recorded: effectively reverse insulin resistance | Insulin sensitivity in ITT ([4]; DIO C57BL/6J male mice on HFD, 300 U/week rhArg and/or 300 mg/kg metformin, after 6 weeks): marginal effect on improving insulin sensitivity but not reach statistical significant | Insulin sensitivity in ITT ([4]; DIO C57BL/6J male mice on HFD, 600 U once a week, after 2 weeks (reduced daily food intake experiment)): marked increase in insulin sensitivity by 2 weeks after treatment | Insulin sensitivity in ITT ([4]; DIO C57BL/6J male mice on HFD, 600 U once a week, at 2 and 4 weeks (artificial IF experiment)): reversal of insulin resistance and marked increase in insulin sensitivity by 2 weeks after treatment; also recorded: significant improvement in insulin sensitivity by 2 weeks | Insulin sensitivity in ITT ([4]; DIO C57BL/6J male mice on HFD, about 600 U once a week, at 16 and 32 weeks): complete reversion of insulin resistance; also recorded: effectively reverse insulin resistance | Insulin sensitivity in ITT ([4]; DIO C57BL/6J male mice on HFD, rhArg weekly and/or 0.33 mg/day RA, after 6 weeks): marginal effect on improving insulin sensitivity but not reach statistical significant | Insulin sensitivity in ITT ([4]; DIO ICR female mice on HFD, once a week, at 15 and 31 weeks): better insulin sensitivity than age-matched mice in CD (vehicle) group | Insulin sensitivity in ITT [5]: significantly improve insulin sensitivity; also recorded: effectively improve insulin sensitivity | Drop of bodyweight ([6]; 16-month old DIO C57BL/6J male mice on HFD, about 68 g prior to treatment, once a week, 25 weeks): 50% | Bodyweight maintained for the rest of the treatment period ([6]; 16-month old DIO C57BL/6J male mice on HFD, about 600 U once a week, 25 weeks): around 30 g | Bodyweight reached and maintained under treatment ([6]; 17-month old C57BL/6J male mice on chow diet, about 600 U once a week, 21 weeks, from 40 g): 30 g | Bodyweight reached and maintained under treatment ([6]; 25-month old C57BL/6J male mice on chow diet, about 600 U once a week, from 45 g within 3 weeks): 30 g | Change in bodyweight under single treatment ([6]; DIO C57BL/6J male mice on HFD, 300 U rhArg once a week alone or 300 mg/kg metformin daily alone): stable body weight without further increase in body mass | Change in bodyweight under single treatment ([6]; DIO C57BL/6J male mice on HFD, 300 U rhArg once a week alone or 300 mg/kg metformin daily alone, listed as rhArg): could only prevent further gain in bodyweight, but did not result in weight loss | Change in bodyweight ([6]; DIO C57BL/6J male mice on HFD, 600 U i.p. once a week, 5 weeks (artificial IF experiment)): substantial weight loss | Decrease of bodyweight by the end of treatment ([6]; DIO C57BL/6J male mice on HFD, 600 U i.p. once a week, 5 weeks (reduced daily food intake experiment)): 44% | Reduction of bodyweight ([6]; DIO C57BL/6J male mice on HFD, about 600 U i.p. once a week, within 6-7 weeks): 40% | Bodyweight reached and maintained under treatment ([6]; DIO C57BL/6J male mice on HFD, about 600 U once a week, 49 weeks, from 50 g within 6-7 weeks): around 30 g | Bodyweight reached and maintained under treatment ([6]; DIO C57BL/6J male mice on HFD, about 600 U once a week, 49 weeks, from 50 g within 6-7 weeks, listed as rhArg): 30 g | Change in bodyweight under single treatment ([6]; DIO C57BL/6J male mice on HFD, rhArg once a week alone or 0.33 mg RA daily alone): stable body weight without further increase | Change in bodyweight under single treatment ([6]; DIO C57BL/6J male mice on HFD, rhArg once a week alone or 0.33 mg RA daily alone, listed as rhArg): could only prevent further gain in bodyweight, but did not result in weight loss | Decrease of bodyweight ([6]; DIO ICR female mice on HFD, 1200 U i.p. once a week, within 9-10 weeks): 30% | Bodyweight maintained for the rest of the treatment period ([6]; DIO ICR female mice on HFD, about 1200 U once a week, 56 weeks): around 35 g
